Reference: patent US20150191515A1 (SYNTHETIC GENOMICS, published 2015)

T1: Hap-1742 (HapY), non-LEC1-type HAP3-like / NF-YB subunit of a CCAAT-box binding factor from Nannochloropsis … (Nannochloropsis gaditana)
T1 construct: also called Nannochloropsis NF-YB polypeptide
T1 chain: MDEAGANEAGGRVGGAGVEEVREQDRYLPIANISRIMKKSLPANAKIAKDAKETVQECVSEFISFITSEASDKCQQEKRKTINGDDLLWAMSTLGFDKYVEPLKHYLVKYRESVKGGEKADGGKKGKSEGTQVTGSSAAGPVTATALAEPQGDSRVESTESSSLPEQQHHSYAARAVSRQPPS


Tests used:
[1] = target: T1, Hap-1742 (HapY), non-LEC1-type …; test: yeast two hybrid, NF-YA-1257 prey strain mated with Hap-1742 bait strain
[2] = target: T1, Hap-1742 (HapY), non-LEC1-type …; test: yeast two hybrid screen, Hap-1742 bait against Nannochloropsis cDNA prey library
Method: Based on these numbers, it is estimated that more than 10 million interactions were tested.

Row | binding result [1] | binding result [2] | Binder
1 | binds |  | NF-YA-1257 (EUKT1257), Nannochloropsis NF-Y subunit A (other, The open reading frame was cloned into prey vector pGADT7 (Clontech) and expressed in yeast strain Y2HGold; also called CBF-B/NF-YA) MDGAETGSGGDSDSGGGRKKIVRPCSSAETSLSMDVTATSYQGTNFNHMLSHGAPASAMVETHDGEGSLCPFPFQPPPHQQHNLQYQQPQEHQMQQTYYGQMNDDGNNFYDHSPHMEGFEPLGAPQEAAGSDLGPQPIFVNPKQYERIMKRREARARLENHRKIAAERKPFLHKSRHLHAVKRPRGPGGRFLTKEERIAWDEEQAQLEGTSTMGAVHVSNEVAAKTLYSSAQASIAAGPPLASQQGSRHASPPFSSPLSSSSCLPPSASTPVAPSGPSSYCSSSPII
2 |  | binds | EUKT6092, Nannochloropsis NF-YC polypeptide (other, Yeast two hybrid prey clone from a cDNA library in pGADT7-rec (Clontech), in yeast strain Y2HGold; also called NF-Y C subunit; HAP5 polypeptide) MSGASGNGANPAVQQPYIPTDAEQAEHLQNLIRKLKDFWVEQLAEMETLSLASEQDFKNYIDLPLARIKRIMKSDEDVHMISAEVLVLFAKACEMFILELTIRSWCYSERSKRRTLQREDIQAAIANADILDFLVNIV
3 |  | binds | EUKT1490, Nannochloropsis NF-YC polypeptide (other, Yeast two hybrid prey clone from a cDNA library in pGADT7-rec (Clontech), in yeast strain Y2HGold; also called NF-Y C subunit; HAP5 polypeptide) MRLYRQIKKASMSRSPEVLQTSNSALSYASPSQAPSGAAIMMPTAPALPGRSTNTPNTQTGTEERKRDTPEGPKPSPLAGTPASMKAEEAPVSSKKARNAPIPPLSTSNAYVTEDTTLAIPRASIKRIMKLDPDTKQLSQDAIMVMAKATELFIDKLAKASHSMAVTNKRKTIKYEDIADARFSQKNMEFLDGVVPQIP
